Source: article PMC6628679 (2019)

Biological target: the molecule itself

B1: PfPKG (protein)
chain: MEEDDNLKKGNERNKKKAIFSNDDFTGEDSLMEDHLELREKLSEDIDMIKTSLKNNLVCSTLNDNEILTLSNYMQFFVFKSGNLVIKQGEKGSYFFIINSGKFDVYVNDKKVKTMGKGSSFGEAALIHNTQRSATIIAETDGTLWGVQRSTFRATLKQLSNRNFNENRTFIDSVSVFDMLTEAQKNMITNACVIQNFKSGETIVKQGDYGDVLYILKEGKATVYINDEEIRVLEKGSYFGERALLYDEPRSATIIAKEPTACASICRKLLNIVLGNLQVVLFRNIMTEALQQSEIFKQFSGDQLNDLADTAIVRDYPANYNILHKDKVKSVKYIIVLEGKVELFLDDTSIGILSRGMSFGDQYVLNQKQPFKHTIKSLEVCKIALITETCLADCLGNNNIDASIDYNNKKSIIKKMYIFRYLTDKQCNLLIEAFRTTRYEEGDYIIQEGEVGSRFYIIKNGEVEIVKNKKRLRTLGKNDYFGERALLYDEPRTASVISKVNNVECWFVDKSVFLQIIQGPMLAHLEERIKMQDTKVEMDELETERIIGRGTFGTVKLVHHKPTKIRYALKCVSKRSIINLNQQNNIKLEREITAENDHPFIIRLVRTFKDSKYFYFLTELVTGGELYDAIRKLGLLSKSQAQFYLGSIILAIEYLHERNIVYRDLKPENILLDKQGYVKLIDFGCAKKVQGRAYTLVGTPHYMAPEVILGKGYGCTVDIWALGICLYEFICGPLPFGNDEEDQLEIFRDILTGQLTFPDYVTDTDSINLMKRLLCRLPQGRIGCSINGFKDIKDHPFFSNFNWDKLAGRLLDPPLVSKSETYAEDIDIKQIEEEDAEDDEEPLNDEDNWDIDF
Work on B1 yielded a Kd of roughly 32 µM.
